Laboratory results: publication PMC10427645, “Extracellular Pgk1 interacts neural membrane protein enolase-2 to improve the neurite outgrowth of motor neurons” (Communications Biology, 2023)

Target: T1, Eno2-Myc (mouse Enolase-2 fused with Myc) (mouse, UniProt P17183 1-434)
T1 construct: Pgk1-Flag was added to the medium of Sf21 cells expressing this protein, followed by BS3 cross-linking; source: Sf21 insect cells (Baculovirus, pVL-Eno2-Myc), expressed on or in the cells, not purified
Experiment: cross-linking + co-IP; cell surface crosslinking-IP: Sf21 cells expressing the Myc-tagged protein incubated 2 h with recombinant Flag-tagged Pgk1 or fragment in the medium, BS3 cross-linking, lysates immunoprecipitated with anti-Flag or anti-Myc beads, western blot with anti-Flag and anti-Myc
Settings: one partner purified

T1 sequence (P17183 whole entry, the tested form may be a part): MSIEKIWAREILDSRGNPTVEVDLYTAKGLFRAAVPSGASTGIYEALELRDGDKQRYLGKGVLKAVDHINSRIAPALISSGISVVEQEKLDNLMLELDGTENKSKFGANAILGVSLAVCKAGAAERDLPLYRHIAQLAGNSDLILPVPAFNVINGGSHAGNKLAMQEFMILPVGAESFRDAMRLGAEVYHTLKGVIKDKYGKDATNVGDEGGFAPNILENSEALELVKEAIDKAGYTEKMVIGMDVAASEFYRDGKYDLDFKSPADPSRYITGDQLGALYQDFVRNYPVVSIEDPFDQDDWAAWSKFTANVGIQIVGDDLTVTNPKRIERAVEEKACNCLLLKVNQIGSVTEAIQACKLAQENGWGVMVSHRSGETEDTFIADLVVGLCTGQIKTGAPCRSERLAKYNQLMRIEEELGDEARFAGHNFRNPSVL

B1: recombinant mouse Pgk1 fused with Flag (Pgk1-Flag) (natural protein, UniProt P09411 1-417, looked up)
chain: MSLSNKLTLDKLDVKGKRVVMRVDFNVPMKNNQITNNQRIKAAVPSIKFCLDNGAKSVVLMSHLGRPDGVPMPDKYSLEPVAAELKSLLGKDVLFLKDCVGPEVENACANPAAGTVILLENLRFHVEEEGKGKDASGNKVKAEPAKIDAFRASLSKLGDVYVNDAFGTAHRAHSSMVGVNLPQKAGGFLMKKELNYFAKALESPERPFLAILGGAKVADKIQLINNMLDKVNEMIIGGGMAFTFLKVLNNMEIGTSLYDEEGAKIVKDLMSKAEKNGVKITLPVDFVTADKFDENAKTGQATVASGIPAGWMGLDCGTESSKKYAEAVGRAKQIVWNGPVGVFEWEAFARGTKSLMDEVVKATSRGCITIIGGGDTATCCAKWNTEDKVSHVSTGGGASLELLEGKVLPGVDALSNV
notes: phosphoglycerate kinase 1 (Pgk1), mouse, full-length coding region (1-417), cDNA cloned from NSC34 and C2C12 cells; also called extracellular Pgk1; phosphoglycerate kinase 1; source: Sf21 insect cells (Baculovirus expression system), purified (anti-Flag beads, eluted with 3x Flag peptide)
  fold, intensity ratio of Flag relative to Myc in the Eno2-Myc plus Pgk1-Flag group against the Eno2-Myc group (set as 1): 8 fold
  fold, intensity ratio of Myc relative to Flag in the Pgk1-Flag plus Eno2-Myc group against the Pgk1-Flag group (set as 1): 14 fold
